Measurements published in patent publication US20220306744A1 (CRESCENDO BIOLOGICS, published 2022).

Experiments:
[1] = molecular target: T1, human PD-1 expressed on cells (CHO TREX human PD1 cell line, full-length human PD-1 sequence) (human, UniProt Q15116 21-288); assay: flow cytometry, PHA-stimulated human CD4+ T cells, Donor 3
T1 construct: Also used for human PD-1 on Jurkat reporter cells, on PathHunter cells and on PHA-stimulated human CD4+ T cells; also called CHO human PD1 cells; CHO human PD-1 cells
Experimental: Binding of monovalent single domain antibodies and multivalent binding agents to T cells was measured using flow cytometry. Peripheral blood mononuclear cells (PBMCs) were isolated from human blood by density gradient centrifugation then CD4+ T cells purified using a negative selection isolation kit according to the manufacturer's protocol (Miltenyi Biotech cat no 130-096-533). T-cells were stimulated with 2.5 μg/ml PHA for 3 days in RPMI media supplemented with 10% FBS, 2 mM Glutamine, 1× Pen/Strep. Cells were transferred into 96 well plates (75000 per well), blocked for 10 mins with PBS/1% BSA, then incubated with serially diluted VH in staining buffer (PBS/1% BSA) for 1 hour at 4° C. Cells were washed with staining buffer by centrifugation then incubated with 10 μg/ml biotinylated Anti His antibody for 40 mins at 4° C. Cells were washed again then stained with Streptavidin Alexa Fluor-488 (10 μg/ml) and 1:5000 diluted Live Dead near IR stain (Molecular Probes cat no. L10119) for 30 mins at 4° C. After further washing cells were fixed and fluorescence measured by flow cytometry.

[2] = molecular target: T1, human PD-1 expressed on cells (CHO TREX …); assay: epitope competition assay on CHO human PD1 cells (labelled VH not specified) after 1 day in human serum
Experimental: (§1) Serum stability of VH and multivalent VH constructs was assessed by measurement of their activity following incubation for 0, 1, 4 or 7 days both in mouse (Sigma M5905) and human serum. […] Minimal loss of activity was observed following incubation with serum.

[3] = molecular target: T1, human PD-1 expressed on cells (CHO TREX …); assay: FMAT: inhibition of human Fc tagged human PD-L1 (400 pM) binding to CHO human PD-1 cells
Experimental: (§2) Purified VH were serially diluted in FMAT assay buffer and tested for binding to CHO human PD-1 cells as described above and for inhibition of human PD-L1/PD-L2 binding to CHO human PD-1 cells. All reagents and serially diluted VH were prepared in FMAT assay buffer. VH, buffer (total binding controls) or excess competitor (non-specific binding control) were incubated with 400 pM human Fc tagged human PD-L1 or 100 pM PDL-2, 4 nM anti human Fc-Alexa Fluor-488 and 2000 per well CHO human PD-1 DRAQ5 stained cells in a 384 well black clear-bottomed assay plates. Plates were incubated for 2 hours at room temperature then fluorescence measured in the FL2 (502 nm-537 nm) and FL5 (677-800 nm) channels on the Mirrorball plate reader (TTP) following excitation at 488 nm and 640 nm. Data was expressed as a % of the total binding control (i.e. % control) after subtraction of the background signal determined from the non-specific binding control wells. The results are shown in FIG. 5 and in Tables 8 and 9 below.

[4] = molecular target: T1, human PD-1 expressed on cells (CHO TREX …); assay: epitope competition assay on CHO human PD1 cells (labelled VH not specified) after 7 days in human serum
Experimental: as §1

[5] = molecular target: T2, recombinant human PD-1 Fc chimera (human, UniProt Q15116 25-167); assay: SPR Biacore T200, single cycle kinetics, human PD-1-hu Fc amine coupled to CM5, 1:1 model
T2 construct: Bought protein (R&D 1086-PD in the HTRF assay); also called human PD-1-hu Fc; huPD-1Fc; not shown: human Fc
Experimental: Binding kinetics of certain humabodies binding to human PD-1-hu Fc were measured by surface plasmon resonance (SPR) technology using Biacore T200 instrument (GE Healthcare). Recombinant human PD-1-hu Fc was immobilized by standard amine coupling to CM5 sensors chip (GE Healthcare) using 0.1 mg/ml solution of antigen in 10 mM sodium acetate at pH 5.5. For the reference flow cell, a blank immobilisation was carried out. Single cycle kinetics assays were used to study the interaction, a five point, three-fold dilution series of each Humabody® VH was made with a top concentration of 30 nM. The binding kinetics were followed by flowing the Humabody® VH over the chip surface in HBS EP+ buffer at a flow rate of 30 μl/min. The contact time for each of the association steps was 180 seconds and the dissociation step was varied between 1200-3600 seconds. The data was fitted to a 1:1 binding model after double reference subtraction using the Biacore T200 Evaluation software.

[6] = molecular target: T1, human PD-1 expressed on cells (CHO TREX …); assay: FMAT: inhibition of PDL-2 (100 pM) binding to CHO human PD-1 cells
Experimental: as §2

[7] = molecular target: T1, human PD-1 expressed on cells (CHO TREX …); assay: FMAT epitope competition, CHO human PD1 cells; competitor Epitope 1 (1.1-Strep tagged protein)
Experimental: For the epitope competition assay reagents were prepared in FMAT assay buffer.
Multivalent molecules 1.92b-4GS-1.39a and 1.92b-4gs-1.62a were tested in the epitope competition assay as described above. 1.92b-4GS-1.39a and 1.92b-4gs-1.62 did cross compete with 1.1-Strap tagged and 2.1-Strap tagged proteins for binding to the cells.
Plates were incubated for a minimum of 1.5 hours at room temperature then fluorescence measured in the FL2 (502 nm-537 nm) and FL5 (677-800 nm) channels on the Mirrorball plate reader (TTP) following excitation at 488 nm and 640 nm. Data was expressed as a % of the total binding control (i.e. % control) after subtraction of the background signal determined from the non-specific binding control wells.

[8] = molecular target: T1, human PD-1 expressed on cells (CHO TREX …); assay: epitope competition assay on CHO human PD1 cells (labelled VH not specified) after 4 days in human serum
Experimental: as §1

[9] = molecular target: T1, human PD-1 expressed on cells (CHO TREX …); assay: epitope competition assay on CHO human PD1 cells (labelled VH not specified) after 0 days in mouse serum
Experimental: as §1

T2 sequence (Q15116 25-167 limits assumed, stated change not applied): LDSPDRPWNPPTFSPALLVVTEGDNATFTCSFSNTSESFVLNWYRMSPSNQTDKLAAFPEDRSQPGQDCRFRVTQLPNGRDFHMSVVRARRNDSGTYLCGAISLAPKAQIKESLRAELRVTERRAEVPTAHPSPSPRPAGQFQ
T1 sequence (Q15116 21-288): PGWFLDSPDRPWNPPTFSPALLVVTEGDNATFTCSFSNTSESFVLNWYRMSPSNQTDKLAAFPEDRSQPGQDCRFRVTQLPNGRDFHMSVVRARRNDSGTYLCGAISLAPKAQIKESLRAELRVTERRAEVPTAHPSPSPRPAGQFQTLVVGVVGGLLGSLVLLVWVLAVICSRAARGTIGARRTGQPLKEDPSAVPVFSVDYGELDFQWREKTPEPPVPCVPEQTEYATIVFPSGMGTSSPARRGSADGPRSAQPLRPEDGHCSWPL

| Binder | EC50 [1] [nM] | IC50 [2] [nM] | IC50 [3] [nM] | IC50 [4] [nM] | Kd [5] [nM] | koff [5] [s⁻¹] | kon [5] [M⁻¹ s⁻¹] | IC50 [6] [nM] | EC50 [7] [nM] | IC50 [8] [nM] | IC50 [9] [nM] |
| --- | --- | --- | --- | --- | --- | --- | --- | --- | --- | --- | --- |
| 1.92b-4GS-1.39a (other, Biparatopic VH-linker-VH; built from its parts here because it is not clear whether 1112 is the protein or the nucleic acid) EVQLVESGGGLVKPGGSLRLSCAASGFTFSDESMTWMRQAPGKGLEWVSYISSGGGVKFYADSVKGRFTISRDNAKNSLYLQMNSLRAEDTAVYYCAREAPLRLGESPHDAFDISGQGTMVTVSSGGGGSGGGGSGGGGSGGGGSEVQLVESGGGLVQPGRSLRLSCAASGFTFDDYALHWVRQAPGKDLEWVSGISWNGGSYGYADSVKGRFTISRDNAKNSLYLQMNSLRAEDTALYYCVREKGPGLTGSTADYYGLDAWGQGTMVTVSS | 0.6 | 0.9 | 1.45 | 1 | 0.012 | 6.5e-06 | 510000 | 1.9 | 1.1 | 1.1 | 1.2 |
| 1.92b-4GS-1.62a (other, Biparatopic VH-linker-VH; also called 1.92-4GS-1.62a; 1.92b-4gs-2.12a) EVQLVESGGGLVKPGGSLRLSCAASGFTFSDESMTWMRQAPGKGLEWVSYISSGGGVKFYADSVKGRFTISRDNAKNSLYLQMNSLRAEDTAVYYCAREAPLRLGESPHDAFDISGQGTMVTVSSGGGGSGGGGSGGGGSGGGGSEVQLVESGGGVVRPGGSLRLSCAASGFTFDDYAMSWVRQAPGKGLEWVSGITWNAGSTGYADSVKGRFTISRDNAKNSLYLQMNSLRAEDTALYYCVRDKYSYAWSYDDFDIWGQGTMVTVSS | 0.6 | 1.3 | 1.2 | 1.1 | 0.0097 | 4.3e-06 | 440000 | 1.6 | 1 | 1.1 | 1.7 |
